How the values were obtained:
[1] = biological target: human CD4 antigen expressed on rat T cell line NB2-6TG (human) (UniProt P01730); assay: FACS, NB2-6TG cells transfected with human CD4; Experiment 1; control antibody at 10 µg/ml
[2] = biological target: human CD4 antigen expressed on rat T cell line NB2-6TG (human) (UniProt P01730); assay: FACS, NB2-6TG cells transfected with human CD4; Experiment 1; control antibody at 40 µg/ml
[3] = biological target: human CD4 antigen expressed on rat T cell line NB2-6TG (human) (UniProt P01730); assay: FACS, NB2-6TG cells transfected with human CD4; Experiment 1; control antibody at 100 µg/ml
[4] = biological target: human CD4 antigen expressed on rat T cell line NB2-6TG (human) (UniProt P01730); assay: FACS, NB2-6TG cells transfected with human CD4; Experiment 1; control antibody at 2.5 µg/ml

**Q.** With reshaped CAMPATH-1 antibody as the substance, how does the Mean cellular Fluorescence [1] read?
**A.** Its Mean cellular Fluorescence is 9.

**Q.** And the Mean cellular Fluorescence [2]?
**A.** Its Mean cellular Fluorescence is 9.4.

**Q.** And the Mean cellular Fluorescence [3]?
**A.** The Mean cellular Fluorescence was 11.6.

**Q.** What about the Mean cellular Fluorescence [4] of the same substance?
**A.** The Mean cellular Fluorescence was 8.6.

Source: patent USRE46877
